Results reported in paper PMC10981947.

Tests used:
[1] = biological target: LeuT-AA, dimer interface mutant of LeuT (F488A and Y489A), C-terminally GFP-tagged
[2] = biological target: TrkA^ECD+TM, truncation mutant of TrkA containing the extracellular and transmembrane domains, C-terminally GFP-tagged
[3] = biological target: TrkA^ECD+TM, truncation mutant of TrkA containing the extracellular and transmembrane domains, C-terminally GFP-tagged; remark: listed apart in the source
[4] = biological target: TrkA^TM, truncation mutant of TrkA containing only the transmembrane domain, C-terminally GFP-tagged
[5] = biological target: sugar transporter SemiSWEET, C-terminally GFP-tagged
[6] = biological target: T1, potassium ion channel KcsA, C-terminally GFP-tagged, P0A334; conditions: remark: other sources report otherwise
T1 chain: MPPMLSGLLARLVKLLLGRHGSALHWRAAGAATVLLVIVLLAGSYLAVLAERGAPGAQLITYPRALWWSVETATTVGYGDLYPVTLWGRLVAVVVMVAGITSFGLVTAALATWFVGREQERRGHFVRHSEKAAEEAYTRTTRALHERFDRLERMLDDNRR

## LeuT-AA, dimer interface mutant of LeuT (F488A and Y489A), C-terminally GFP-tagged (natural protein)
[1]
  percent dimer: 36%
  percent monomer: 53%

## TrkA^ECD+TM, truncation mutant of TrkA containing the extracellular and transmembrane domains, C-terminally GFP-tagged (domain or fragment)
[2]
  percent dimer (NGF-treated, fraction 1): 47%
  percent higher-order oligomers (NGF-treated, fraction 1): 30%
  percent monomer (NGF-treated, fraction 1): 22%
[3]
  percent dimer (no NGF): 40%
  percent higher-order oligomers (no NGF): 5%
  percent monomer (no NGF): 55%

## TrkA^TM, truncation mutant of TrkA containing only the transmembrane domain, C-terminally GFP-tagged (domain or fragment)
[4]
  percent dimer (no NGF): 35%
  percent higher-order oligomers (no NGF): 2%
  percent monomer (no NGF): 60%

## sugar transporter SemiSWEET, C-terminally GFP-tagged (natural protein)
[5]
  stoichiometry N: 2

B1: potassium ion channel KcsA, C-terminally GFP-tagged, P0A334 1-160 (natural protein)
chain: T1 chain
[6]
  stoichiometry N: 4
